Laboratory results as given in the nanobody polyreactivity screen of Harvey et al. (2022).

Assay: yeast display, Sf9 membrane polyspecificity reagent, FACS + sequencing; frameworks hold sequencing errors
Procedure, shortened: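 Galactose-induced (36–48 hours) yeast carrying a synthetic nanobody display library were exposed to 10% biotinylated, detergent-solubilized Sf9 membrane reagent at 4 °C for 1 hour. FACS followed streptavidin microbead enrichment, using low and high (top ~1%) gates for expression (anti-HA) and reagent binding (streptavidin). Colony PCR, MiSeq 2 × 250 sequencing and CDR-length filtering followed. Labels for polyreactivity reflect the gate of origin.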
In the case of “QVQLVESGGGLVQAGGSLRLSCAASGSTLGYYVMGWYRQAPGKERELVAAITGGGSTDYADSVKGRFTISRDNAKNTVYLQMNSLKPEDTAVDYCAAERTRTGQLFCWGPIYEYWGQGTQVTVSS”, the “polyreactivity (PSR sort gate)” value is reported as “low polyreactivity”. With “QVQLVESGGGLVQAGGSLRLSCAASGRIFVSNAMGWYRQAPGKERELVAGINSGDRTYYADSVKGRFTISRDNAKNTVYLQMNSLNPEDTAVYYFADSSRRGTGLRYYWGQGTQVTVSS” the “polyreactivity (PSR sort gate)” value was “high polyreactivity”. In the case of “QVQLVESGGGLVQAGGSLRLSCAASGRIYVYAMGWYRQAPGKEREMVAAITASDGSTYYADSVKGRFTISRDNAKNTVYLQMNSLKPEDTAVYYCAADIYEHNYYGYYYWGQGTKVTVSS”, the “polyreactivity (PSR sort gate)” value is reported as “high polyreactivity”. For “QVQLVESGGGLVQAGGSLRLSCAASGRILWWYAMGWYRQAPRKEREFFAAITTSGGSTYYADSVKGRFTISRDNAKNTVYLQMTSLKPEDNAVYYCAADLFVRNLVYTYDYDYWGQGTQVTVSA”, the “polyreactivity (PSR sort gate)” value was “high polyreactivity”. For “QVQLVESGGGLVQAGGSLRLSCAPSGSTFFWYSMGWYRQAPGKERELVARISRRSGSTYYADSVKGRFTISRDNAKNTVYLQMNSLIPEDTAVYYCNARAVGAPGSVRYDYWGQGTQVTVSS”, the “polyreactivity (PSR sort gate)” value was “low polyreactivity”. For “QVQLVESGGGLVQAGGSLRLSCAASGFIFKGYAMGWYRQAPGKERELVATINWSGGRTYYADSVKGRFTISRDNAKNTVYLQMNSLKPEDTAVYYCNVQVGTYAWWYRVGSWYDYWGQGTQVTVSS”, the “polyreactivity (PSR sort gate)” value was “high polyreactivity”. For “QVQLVESGGGLVQAGGSLRLSCAASGRIFKWYAMGWSRQAPGKEWEFVAGISGSAGRTYYADSVKGRCTISRDNAKNTVYLQMNSLKPEDTAVYYCAAVYYSSLYDYWGQGTQVTVSS”, the “polyreactivity (PSR sort gate)” value was “low polyreactivity”. In the case of “QVQLVESGGGLVQAGGSLRLSCAASGRTFYVYAMGWYRQAPGKERELVAAITSGGRTYYADSVKGRFTISRDNAKNTVYLQMNSLKPEDTAVYYCAVGNGLSRYVYGDYDYWGQGTQVTVSS”, the “polyreactivity (PSR sort gate)” value is reported as “high polyreactivity”. With “QVHLVESGRGLVQAGGSLRLSCASSGSIFSRYAMGRYREAPGKVSELVAAISRRGGRTYYADSVKGRFTISRDYAKNTVYLQMKSLKPEVTAVYYCNDRRYNVPHPNRYDYWGQGTQVTVSS” the “polyreactivity (PSR sort gate)” value was “high polyreactivity”. With “QVQLVESGGGLVQAGGSLRLSCAASGSTFRYNTMGWYRQAPGKERELVAAISSGGGTHFADSVKGRFTISRDNAKNTVYLQMNSLKPEDTAVYYCAAQSRYRYQFYSGLEYDYWGQGTQVTVSS” the “polyreactivity (PSR sort gate)” value was “low polyreactivity”. In the case of “QVQLVESGGGLVQAGGSLRLSCAASGSTFTYNTMGWYRQAPGKERELVAGITKSGGSTYYADSVKGRFTISRDTAKNTVYLQMNSLKPEDTAVYYCATSTSRRYGSRHNYWGQGTQVTVSS”, the “polyreactivity (PSR sort gate)” value is reported as “high polyreactivity”. In the case of “QVQLVESGGGLVQAGGSLRLRCAASGSIFKRYAMGWYRQAPGKERELVAAISWGGGRTYYADSVKGRFTISRDTAKNTVYLQMNSLKPEDTAVYYCNRVGSYGQSNSYQGGDYWGQGTQVTVSS”, the “polyreactivity (PSR sort gate)” value is reported as “high polyreactivity”. For “QVQLVESGGGLVQAGGSLRLSCAASGSTFDGNAMGWYRQAPGKERELVAAITSGGSTNYADSVKGRFTILRDNAKNTVYLQMNSLKPEDTAVYYCAAGWLYARWHSYVGYYYWGQGTQVTVSS”, the “polyreactivity (PSR sort gate)” value was “low polyreactivity”. In the case of “QVQLVESGGGLVQAGGILRLSCAASGRILDGYAMGWYRQAPGKERELVAAISSRGGRTYYADSVKGRFTISRDNAKNTVYLQMNSLKPEDTAVYYCAATRYGTYEYNYWGQGTQVTVSS”, the “polyreactivity (PSR sort gate)” value is reported as “high polyreactivity”. For “QVQLVESGGGLVQAGGSLRLSCAASGRIFTEYVMGWYRQAPGKERELVAAAITRGGSTNYADSVKGRFTISRDNAKNTVYLQMNSLKPEDTAVYYCNKDDWPVSRQLYTGKYDSWGQGTQVTVSS”, the “polyreactivity (PSR sort gate)” value was “low polyreactivity”. In the case of “QVQLVESGGGLVQAGGSLRLSCAASGTFYKYSMGWYRQAPGKERELVAAISWRGGRTYADSVKGRFTISRDNAKNTVYLQMNSLKPEDTAVYYCNKRFYPEHYYWGQGTQVTVSS”, the “polyreactivity (PSR sort gate)” value is reported as “high polyreactivity”. With “QVQLVESGGGLVQAGGSLRLSCAASGFTFAVNAMGWYRQAPGKERELVAAISKSGGRTYYADSVKGRFTISRDNAKNTVYLQMNSLKPEDTAVYYCAADGPGYTYDYWGQGTQVTVSS” the “polyreactivity (PSR sort gate)” value was “high polyreactivity”. For “QVQLVESGGGLVQAGGSLRLSCAASGSTLRWNTMGWYRQAPGKERQLVARISKSGGSTSYADSVKGRLTISRDNAKNTVYLQMNSLKPEDTAVYYCAKTPSQGYVFSYRWGDYWGQGTQVTVSS”, the “polyreactivity (PSR sort gate)” value was “high polyreactivity”. For “QVQLVESGGGLVQAGGSLRLSCAASGSILGGNTMGGYRQAPGKERELVAAISRSGGSTYYADSVKGRLTISRDNAKNTVYLQMNSLKPEDTAVYYCNRKQAGHAQGYDYWGQGTQVTVSS”, the “polyreactivity (PSR sort gate)” value was “high polyreactivity”. With “QVQLVESGGGLVQAGGSLRLSCAASGSIFGGYTMGWYRQAPGKERELVAAISRRGGNTYYADSVKGRFTISRDNAKNTVYLQMNSMKPEDSAVYYCAVRWPSARIPVKLDYWGQGTQVNVSS” the “polyreactivity (PSR sort gate)” value was “high polyreactivity”. In the case of “QVQLVESGGGLVQAGGSLRLSCAASGRTLPPNAMGWYRQAPGKERELVAGITWSGGSTYYADSVKGRFTISRDNAKNTVYLQMNSLKPEDTAVYYCAASRSFPGYGLYYYWGQGTQVTVSS”, the “polyreactivity (PSR sort gate)” value is reported as “low polyreactivity”. In the case of “QLQLVESGGGLVQAGGSLRLSCAASGSIFQYNAMGLYRQAPGKRELVAALNRSGGSTYYGDSVKGRFTISRDNAKNTVDLQMNSLKPEDTAVYYCAAGVFYFLKYTVSFINYYWRQGTQVTVSS”, the “polyreactivity (PSR sort gate)” value is reported as “high polyreactivity”. With “QVQLVESGGGLVQAGGSLRLSCAASGRTIDLNAMGWYRQAPGKERELVAAITSSGSTNYADSVKGRFTISRDNAKNTVYLQMNSLKPDDTAVYYCNKDPIYSAEYWVGSVGFDYWGQGTQVTVSS” the “polyreactivity (PSR sort gate)” value was “low polyreactivity”. For “QVQLVESGGSLVQAGGSLRLSCAATGRIFGPYAMGWYRQAPGKERELVATITWSGVSTYYADSVKGRFTLSRDNAKNTVYLQMNSLKPEDTAVYFCAADPQVIYRGFYQRDYWGQGTQVTVSS”, the “polyreactivity (PSR sort gate)” value was “low polyreactivity”. With “QVQLVESGGGLVQAGGSLRLSCAASGFTLYRYAMGWYRQAPGKERELVAAISKRGATSYYADSVKGRFTISRDNAKNTVYLQMNSLKPEDTAVYYCAATISRAYKPVKGHYYLGMDYWGQGTQVTVSS” the “polyreactivity (PSR sort gate)” value was “high polyreactivity”. For “QVQLVESGGGLVQAGGCLRLSCAASGSIFDHYVMGWYREAPGKERELVAAISSGDRPNYADSVKGRFTISRDNAKNPVYLQMNSLKPEETAVYYCAAVVHVSPYSYDYWGQGTQVTVSA”, the “polyreactivity (PSR sort gate)” value was “low polyreactivity”. With “QVQLVESGGGLVQAGGSLRLSCAASGSIFYSNAMGWYRQAPGKERELVAAISFTGGTTYYADSVKGRFTISRDNAKNTVYLQMNSLKPEDTAVYYCNKLYHHYYGYWGQGTQVTVSS” the “polyreactivity (PSR sort gate)” value was “high polyreactivity”. For “QVQLVESGGGLVQAGGSLRLSCAASGSTFFIYTMGWYRQAPGKEREFVAAISWTGGRTYYADSVKGRFTISRDNAKYTVYLQMNSLIPEDTPVYYCAALYKYSSYDYWGQGTQVTVSS”, the “polyreactivity (PSR sort gate)” value was “high polyreactivity”. In the case of “QVQLVESGGGLVQAGGSLRLSCAASGRIFYRYAMGWYRQAPGKERELVAAISTSGARTYYADSVKGRFTISRDNAKIYVYLQMNSLKPVDTAVYYCAATATVSKFGYWGQGTQVTVSS”, the “polyreactivity (PSR sort gate)” value is reported as “low polyreactivity”. With “QVQLVESGGGLVQAGGSLRLSCAASGRTFPFYAMGWYRQAPGKERELVASISRSTGRTYYADSVKGRFTISRDNAKNTVYLQMNSLKPEDTAVYYCAKSGGSSQYWYGYWGQGTQVTVSS” the “polyreactivity (PSR sort gate)” value was “high polyreactivity”. For “QVQLVESGGGLVQAGGSLRLSCAASGSTFFYYAMGWYRQAPGKERAFVAAISSSVGTTYYADSVKGRFTISRDNAKNTVYLQMNRLKPVDTAVYYCAKASSATRYVQLRQDYDYWGQGTQVTVSS”, the “polyreactivity (PSR sort gate)” value was “low polyreactivity”. In the case of “QVQLVESGGGLDQAGGSLRLSWAASGSTFTINVMGWYRQAPGKERELVAAINGGGRTNYADSVKGRFTISRDNAKNTVYLQMNSLKPEDTAVYYCAADGLSNVRQMDFWGQGTQVTVSS”, the “polyreactivity (PSR sort gate)” value is reported as “low polyreactivity”. In the case of “QVQLVESGGGLVQAGGSLRLSCAASGSIFRPNAMGWYRQAPGKERELVAAITWSGDSTYYADSVKGRFTLSRDNAKNTVYRQMNSLKPVDTAVYYCATDPDYVLYRTAYYEFDYWGQGTHVTVSS”, the “polyreactivity (PSR sort gate)” value is reported as “low polyreactivity”. For “QVQLVESGGGLVQAGGSLRLSCAASGGTFKSAYVMGWYRQAPGKERELVAAIDSTGSTNYADSVKGRFTISRDNAKNTVYLQMNSLKPEDTAVYYCNADRRELYYDPMDYWGQGTQVTVSS”, the “polyreactivity (PSR sort gate)” value was “low polyreactivity”. With “QGQLVESGRGLVQAGGSLRLSCAASGRTFRRYGKGWYRQAPGNERELVAAITSGGGTYYEDSVKGRVTISRDNAKNTVYLQMNSLKPEDTAVYYCAAQRVYKSSPSYDFWGQGTQVTVSS” the “polyreactivity (PSR sort gate)” value was “low polyreactivity”. For “QVQLVESGGGLVQAGGSLRLRCAASGRTFSSNAMGWSRQAPGKERQLVASITWSGRTYYADSVKGRFTNSRDNAKNTVYLQMNSRNPEDHAVYYCATVYRQESYFYTLYYWGQGTQVTVSS”, the “polyreactivity (PSR sort gate)” value was “high polyreactivity”. In the case of “QVQLQESGCGLVQAGGCLSCTASGTIFGQGDMGWYRQAPGKERELVATINDGASTYYADSVKGRFTISRDKAKNTVYLQMNSLKPEDTAVYYCAAVIRPRYYQVRPRYDYWGQGTQVTVSS”, the “polyreactivity (PSR sort gate)” value is reported as “low polyreactivity”. In the case of “QVQLVESGGGLVQAGGSLRLSCAASGSIFFGNAMGWYRQAPGKERELVAAIDGTGASTYYADSVKGRFTISRDNAKNTVYLQMNSLKPEDTAVYYCNKALTSKDYPVRTVERDYWGQGTKVTVSS”, the “polyreactivity (PSR sort gate)” value is reported as “low polyreactivity”. In the case of “QVQLVESGGGLVQAGGSLRLSCAASGSTFLTNAMGWYRQAPGKERELGAAITWSTGSTYYADSVKGRFTISRDNAKNTVYLQMNSLKPEDTAVYYCNARSEVSYWWGGYWGQGTQVTVSS”, the “polyreactivity (PSR sort gate)” value is reported as “low polyreactivity”. In the case of “QVQLVESGGGLVQAGGSLRLSCAASGSIFYRYAMGWYRQAPGKERELVAAISSNGVSTYYADSVKGRFTISRDNAKNTVYLQMNSLKPEDTAVYCCARDVYASPRLYTSRYNYWGQGTQVTVSS”, the “polyreactivity (PSR sort gate)” value is reported as “low polyreactivity”. In the case of “QVHLVESGGGLVQAGGSLRLSCAASGRIFAGYAMGWYRQAPGKERELVATITRGGSTNYADSVKRPFTISRDNAKNTVYLQMNSLKPEDTAVYYCADVTWYEEYDSWGQGTQVTVSS”, the “polyreactivity (PSR sort gate)” value is reported as “low polyreactivity”. With “QVQLVESGGGLVQAGGSLRLSCAASGRTFWDYGMGWYRQAPGKERELVATISGNGGDTYYADSVKGRFTISRDNAKNTVYLQMNSLKPEDTAVYYCAAAWPSTGLLYVLGYSGYGYWGQGTQVTVSS” the “polyreactivity (PSR sort gate)” value was “low polyreactivity”. In the case of “QVQLVESGGGLVQAGGSLRLSCAASGSTFDYYAMGWYRQAPGKERELVGVISSSGGSTYYADSVKGGFTISRDNAKNTVYLQMNSLKPEDTAVYYCAALYRNYGSSYAYYYWGQGTQVTVSS”, the “polyreactivity (PSR sort gate)” value is reported as “low polyreactivity”.
